Reference: patent US20150368338A1 (Janssen / Centocor, published 2015)

T1: IFN-αF (human, UniProt P01568 24-189)
T1 construct: also called IFN-α21; alpha F
T1 chain: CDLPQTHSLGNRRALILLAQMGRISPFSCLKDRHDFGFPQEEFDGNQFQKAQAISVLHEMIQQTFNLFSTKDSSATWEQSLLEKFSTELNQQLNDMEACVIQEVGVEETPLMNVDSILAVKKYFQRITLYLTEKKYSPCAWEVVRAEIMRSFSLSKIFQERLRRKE


What was measured:
Assay in all cases: ProteOn, one antigen concentration
IFN-αC = target: T2, IFN-αC (human, UniProt P01566 24-189)
T2 construct: also called IFN-α10; alpha C
Source text: (§1) To increase the assay throughput, only one concentration of the individual antigen was used.

IFN-αWA = target: T3, IFN-αWA (human, UniProt P05015 24-189)
T3 construct: also called IFN-α16; alpha WA
Source text: as §1

IFN-αJ1 = target: T4, IFN-αJ1 (human, UniProt P01567 24-189)
T4 construct: also called IFN-α7; alpha J1
Source text: as §1

IFN-αG = target: T5, IFN-αG (human, UniProt P01569 24-189)
T5 construct: also called IFN-α5; alpha G
Source text: as §1

IFN-αF = target: T1, IFN-αF
Source text: as §1

human IFN-ω = target: T6, human IFN-ω (human, UniProt P05000 24-195)
T6 construct: also called interferon omega
Source text: as §1

IFN-α4a = target: T7, IFN-α4a (human, UniProt P05014 24-189)
T7 construct: also called IFN-αM1
Source text: as §1

| Binder | Kd (IFN-αC) [nM] | Kd (IFN-αWA) [nM] | Kd (IFN-αJ1) [nM] | Kd (IFN-αG) [nM] | Kd (IFN-αF) [nM] | Kd (human IFN-ω) [nM] | Kd (IFN-α4a) [nM] |
| --- | --- | --- | --- | --- | --- | --- | --- |
| IFWM3306 (antibody, V domains shown, VH IFWH591, VL IFWL1000; converted mAb; also called IFWB3041) VH: EVQLVQSGAEVKKPGESLKISCKGSGYSFTSYWIGWVRQMPGKGLEWMGIIDPSDSDTRYSPSFQGQVTISADKSISTAYLQWSSLKASDTAMYYCARHPGLNWAPDFDYWGQGTLVTVSS VL: DIQMTQSPSSLSASVGDRVTITCRASQSITNFLNWYQQKPGKAPKLLIYFASSLQSGVPSRFSGSGSGTDFTLTISSLQPEDFATYYCQQSLDFPLTFGQGTKVEIK | 0.027 | 0.07 | 0.086 | 0.029 | 0.025 | 0.02 | 0.147 |
| IFWM3308 (antibody, V domains shown, VH IFWH591, VL IFWL1004; converted mAb; also called IFWB3043) VH: EVQLVQSGAEVKKPGESLKISCKGSGYSFTSYWIGWVRQMPGKGLEWMGIIDPSDSDTRYSPSFQGQVTISADKSISTAYLQWSSLKASDTAMYYCARHPGLNWAPDFDYWGQGTLVTVSS VL: DIQMTQSPSSLSASVGDRVTITCRASQSIAEFLNWYQQKPGKAPKLLIYFASSLQSGVPSRFSGSGSGTDFTLTISSLQPEDFATYYCQQSIDFPLTFGQGTKVEIK | 0.052 | 0.099 | 0.203 | 0.045 | 0.053 | 0.038 | 0.246 |
| IFWM3309 (antibody, V domains shown, VH IFWH591, VL IFWL1006; converted mAb; also called IFWB3044) VH: EVQLVQSGAEVKKPGESLKISCKGSGYSFTSYWIGWVRQMPGKGLEWMGIIDPSDSDTRYSPSFQGQVTISADKSISTAYLQWSSLKASDTAMYYCARHPGLNWAPDFDYWGQGTLVTVSS VL: DIQMTQSPSSLSASVGDRVTITCRASQSIGGFLNWYQQKPGKAPKLLIYFASSLQSGVPSRFSGSGSGTDFTLTISSLQPEDFATYYCQQSYSLPITFGQGTKVEIK | 0.109 | 0.139 | 0.275 | 0.12 | 0.14 | 0.055 | 0.383 |
| IFWM3310 (antibody, V domains shown, VH IFWH591, VL IFWL1007; converted mAb; also called IFWB3045) VH: EVQLVQSGAEVKKPGESLKISCKGSGYSFTSYWIGWVRQMPGKGLEWMGIIDPSDSDTRYSPSFQGQVTISADKSISTAYLQWSSLKASDTAMYYCARHPGLNWAPDFDYWGQGTLVTVSS VL: DIQMTQSPSSLSASVGDRVTITCRASQSIGKSLNWYQQKPGKAPKLLIYFASSLQSGVPSRFSGSGSGTDFTLTISSLQPEDFATYYCQQSYDFPLTFGQGTKVEIK | 0.057 | 0.091 | 0.101 | 0.054 | 0.04 | 0.065 | 0.177 |
| IFWM3311 (antibody, V domains shown, VH IFWH591, VL IFWL1009; converted mAb; also called IFWB3046) VH: EVQLVQSGAEVKKPGESLKISCKGSGYSFTSYWIGWVRQMPGKGLEWMGIIDPSDSDTRYSPSFQGQVTISADKSISTAYLQWSSLKASDTAMYYCARHPGLNWAPDFDYWGQGTLVTVSS VL: DIQMTQSPSSLSASVGDRVTITCRASQSIDDFLNWYQQKPGKAPKLLIYFASSLQSGVPSRFSGSGSGTDFTLTISSLQPEDFATYYCQQSHTLPLTFGQGTKVEIK | 0.036 | 0.072 | 0.056 | 0.056 | 0.021 | 0.012 | 0.223 |
| IFWM3314 (antibody, V domains shown, VH IFWH591, VL IFWL1014; converted mAb; also called IFWB3049) VH: EVQLVQSGAEVKKPGESLKISCKGSGYSFTSYWIGWVRQMPGKGLEWMGIIDPSDSDTRYSPSFQGQVTISADKSISTAYLQWSSLKASDTAMYYCARHPGLNWAPDFDYWGQGTLVTVSS VL: DIQMTQSPSSLSASVGDRVTITCRASQSIDRALNWYQQKPGKAPKLLIYFASSLQSGVPSRFSGSGSGTDFTLTISSLQPEDFATYYCQQSFDFPLTFGQGTKVEIK | 0.026 | 0.042 | 0.039 | 0.028 | 0.021 | 0.02 | 0.092 |
| IFWM3315 (antibody, V domains shown, VH IFWH591, VL IFWL1017; converted mAb; also called IFWB3050) VH: EVQLVQSGAEVKKPGESLKISCKGSGYSFTSYWIGWVRQMPGKGLEWMGIIDPSDSDTRYSPSFQGQVTISADKSISTAYLQWSSLKASDTAMYYCARHPGLNWAPDFDYWGQGTLVTVSS VL: DIQMTQSPSSLSASVGDRVTITCRASQSITSSLNWYQQKPGKAPKLLIYFASSLQSGVPSRFSGSGSGTDFTLTISSLQPEDFATYYCQQSFDLPLTFGQGTKVEIK | 0.059 | 0.115 | 0.134 | 0.061 | 0.05 | 0.063 | 0.24 |
| IFWM3316 (antibody, V domains shown, VH IFWH591, VL IFWL1022; converted mAb; also called IFWB3051) VH: EVQLVQSGAEVKKPGESLKISCKGSGYSFTSYWIGWVRQMPGKGLEWMGIIDPSDSDTRYSPSFQGQVTISADKSISTAYLQWSSLKASDTAMYYCARHPGLNWAPDFDYWGQGTLVTVSS VL: DIQMTQSPSSLSASVGDRVTITCRASQSINEFLNWYQQKPGKAPKLLIYFASSLQSGVPSRFSGSGSGTDFTLTISSLQPEDFATYYCQQSYSTPLTFGQGTKVEIK | 0.042 | 0.073 | 0.07 | 0.087 | 0.033 | 0.042 | 0.168 |
| IFWM3317 (antibody, V domains shown, VH IFWH591, VL IFWL1026; converted mAb; also called IFWB3052) VH: EVQLVQSGAEVKKPGESLKISCKGSGYSFTSYWIGWVRQMPGKGLEWMGIIDPSDSDTRYSPSFQGQVTISADKSISTAYLQWSSLKASDTAMYYCARHPGLNWAPDFDYWGQGTLVTVSS VL: DIQMTQSPSSLSASVGDRVTITCRASQSISKFLNWYQQKPGKAPKLLIYFASSLQSGVPSRFSGSGSGTDFTLTISSLQPEDFATYYCQQSYDFPITFGQGTKVEIK | 0.133 | 0.162 | 0.206 | 0.126 | 0.121 | 0.016 | 0.37 |
| IFWM3318 (antibody, V domains shown, VH IFWH591, VL IFWL1038; converted mAb; also called IFWB3053) VH: EVQLVQSGAEVKKPGESLKISCKGSGYSFTSYWIGWVRQMPGKGLEWMGIIDPSDSDTRYSPSFQGQVTISADKSISTAYLQWSSLKASDTAMYYCARHPGLNWAPDFDYWGQGTLVTVSS VL: DIQMTQSPSSLSASVGDRVTITCRASQSISEYLNWYQQKPGKAPKLLIYFASSLQSGVPSRFSGSGSGTDFTLTISSLQPEDFATYYCQQSHSLPITFGQGTKVEIK | 0.03 | 0.091 | 0.119 | 0.04 | 0.034 | 0.018 | 0.252 |
| IFWM3319 (antibody, V domains shown, VH IFWH591, VL IFWL1041; converted mAb; also called IFWB3054) VH: EVQLVQSGAEVKKPGESLKISCKGSGYSFTSYWIGWVRQMPGKGLEWMGIIDPSDSDTRYSPSFQGQVTISADKSISTAYLQWSSLKASDTAMYYCARHPGLNWAPDFDYWGQGTLVTVSS VL: DIQMTQSPSSLSASVGDRVTITCRASQSITGFLNWYQQKPGKAPKLLIYAASSLQSGVPSRFSGSGSGTDFTLTISSLQPEDFATYYCQQSHDFPLTFGQGTKVEIK | 0.052 | 0.107 | 0.151 | 0.049 | 0.044 | 0.034 | 0.274 |
| IFWM3320 (antibody, V domains shown, VH IFWH591, VL IFWL1047; converted mAb; also called IFWB3055) VH: EVQLVQSGAEVKKPGESLKISCKGSGYSFTSYWIGWVRQMPGKGLEWMGIIDPSDSDTRYSPSFQGQVTISADKSISTAYLQWSSLKASDTAMYYCARHPGLNWAPDFDYWGQGTLVTVSS VL: DIQMTQSPSSLSASVGDRVTITCRASQSINGVLNWYQQKPGKAPKLLIYFASSLQSGVPSRFSGSGSGTDFTLTISSLQPEDFATYYCQQSHDFPLTFGQGTKVEIK | 0.02 | 0.041 | 0.061 | 0.033 | 0.013 | 0.021 | 0.089 |
